Substrate in series [1]: NC(=O)c1ccc[n+]([C@@H]2O[C@H](COP(=O)(O)OP(=O)(O)OC[C@H]3O[C@@H](n4cnc5c(N)ncnc54)[C@H](O)[C@@H]3O)[C@@H](O)[C@H]2O)c1
The experiment in a line: purified protein. Conditions: saturating PBald, 33 mM phosphate pH 8.2, 1 mM EDTA, 0.1 mM pyrazole, 37°C, varied: cofactor. The class given is biochemical, Aedes aegypti.

Substrate in series [2]: O=Cc1cccc(Oc2ccccc2)c1
The experiment in a line: purified protein. The following applies: saturating NAD+, 33 mM phosphate pH 8.2, 1 mM EDTA, 0.1 mM pyrazole, 37°C. It is filed as biochemical, Aedes aegypti.

In general, Km refers to the concentration of substrate that gives half-maximal velocity.

B1: ALDH14080 (Aedes aegypti) (protein)
chain: MANPNQEIKYTKLFINNQFVDSQSGKTFPTLNPATGQKIVDVAEGDKADVDIAVQAAKTAFARSSAWRQMDASARGKLLHKLADLMERDINVLANLESLDNGKAFGDSVFDMNCAIDTFRYYAGWADKIHGSTVPSDGPVMTYIRKEPVGVVGQIIPWNYPVLMLTWKWAPALATGCTLVLKPAEQTPLSALYMAALSKEAGFPDGVINVVNGYGPTVGAAIVNHAEIRKVAFTGSVETGRLITEGSSKSNLKRVSLELGGKSPLVVFDDFDVDEAVEIAHNAIFANHGQNCCAGSRTFVQEGVYDKFVAKAAEMAKARKVGDAFAEGTQQGPQVDEEQLNKILGFFESASKEGAKLQTGGKRHGNVGYFVEPTVYSDVTDEMRIAREEIFGPVQSILKFKTLDEVIERANRTEYGLAAGVLTNNLNNALVFSNAVEAGSVWVNCYDYVMPTTPFGGFKQSGHGRELGYDGIELYTETKTVTIKLPSKV
notes: full length, N-terminal His6 fusion from pET100-D/TOPO, E. coli BL21 Star (DE3), HisTrap Ni purified, about 65 kDa on SDS-PAGE; cDNA from PMD-R strain
As to B1, the Km in the series “purified protein [1]” turned out to be 0.1938 ± 0.0345 µM.

B2: ALDH9948 (Aedes aegypti) (protein)
chain: MANANPEIKYTQLFINNEFVDAVSGKVFPTVNPSTGKKIVDIAEGDKADVDLAVQAAKAAFQRSSKWRQMDASARGKLIYKLADLMERDMHQIASLESLDNGKPYMSAVYDVYGSMNCLRYYAGWTDKVCGETVPSDGPHLTYTRKEPFGVVGQIIPWNYPLLMLAWKWGPALAAGCTIVMKPAEQTPLTALYMCSLVKEAGFPPGVVNMVPGYGPTAGNAITMHPDIRKVAFTGSVEVGKIVMAGAASNLKKVSLELGGKSPLVICDDVDVNEAAQIAYTGVFENMGQCCIAATRTFVQEGIYDAFVQKATELAKGRKVGNPFSQGIQHGPQIDDIQFKKILGFIETGKKEGAKLETGGVQVGEEGYFIEPTVFSNVTDEMTIAKEEIFGPVQSIIKFKTLDEAIERANATSFGLAAGIVTKNLNNALTFSNAVEAGSVWVNTYLAVSNQAPFGGYKQSGVGREMGKEGIEEYLETKTVSIKLPSKV
notes: as for B1
As to B2, the Km in “purified protein [1]” stood at 0.1391 ± 0.0279 µM; in the series “purified protein [2]”, 0.1538 ± 0.0308 µM.

Values taken from publication PMC4105619, “Identification and Characterisation of Aedes aegypti Aldehyde Dehydrogenases Involved in Pyrethroid Metabolism” (PLoS ONE, 2014).
